Target: human CD1a expressed on cells (human) (UniProt P06126)
Test: cell-based or functional assay

Chain of human CD1a expressed on cells (human) (P06126 17-327): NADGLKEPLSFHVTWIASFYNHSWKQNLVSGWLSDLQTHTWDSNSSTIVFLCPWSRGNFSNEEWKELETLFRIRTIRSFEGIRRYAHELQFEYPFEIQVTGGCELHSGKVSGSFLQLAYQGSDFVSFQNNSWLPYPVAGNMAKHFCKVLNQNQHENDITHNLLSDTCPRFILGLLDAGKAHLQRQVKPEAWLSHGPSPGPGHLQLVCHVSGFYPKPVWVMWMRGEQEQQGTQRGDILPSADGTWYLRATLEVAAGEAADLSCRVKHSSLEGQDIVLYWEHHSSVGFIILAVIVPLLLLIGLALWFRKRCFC

Row | Substance | CD69 expression, IC50 [nM] | IL-2 secretion, IC50 [nM]
1 | Human IgG1 (EFN) isotype control (antibody) | > 100 | > 100
2 | OKT6-human IgG1 (EFN) (antibody) | 0.042 | 0.028
